Measurements taken from paper PMC3792889.

Target: Growth factor receptor protein binding protein 2 (Grb2), endogenous (mouse (endogenous in STHdhQ7/7, STHdhQ111/111 and Neuro2A cells)) (UniProt Q60631)
Assay: co-IP; extracts of Neuro2A cells transfected with 23Q or 145Q Httex1 GFP; precipitated with anti-Grb2 antibody and Protein A/G beads; blot with anti-GFP; densitometry, n=3

UniProt Q60631, sequence (Q60631 whole entry): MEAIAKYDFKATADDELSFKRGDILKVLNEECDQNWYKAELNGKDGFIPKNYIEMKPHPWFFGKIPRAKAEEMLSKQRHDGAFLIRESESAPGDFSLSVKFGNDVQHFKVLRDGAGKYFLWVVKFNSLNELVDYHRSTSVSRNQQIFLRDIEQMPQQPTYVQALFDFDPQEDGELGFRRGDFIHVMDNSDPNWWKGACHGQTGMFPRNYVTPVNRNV

- fold precipitation against 23Q Httex1 GFP: 2 fold
Substance: 145Q Htt exon1 GFP (domain or fragment)
